B1: Symplekin (Homo sapiens), Q92797 (parent)
chain: MASGSGDSVTRRSVASQFFTQEEGPGIDGMTTSERVVDLLNQAALITNDSKITVLKQVQELIINKDPTLLDNFLDEIIAFQADKSIEVRKFVIGFIEEACKRDIELLLKLIANLNMLLRDENVNVVKKAILTMTQLYKVALQWMVKSRVISELQEACWDMVSAMAGDIILLLDSDNDGIRTHAIKFVEGLIVTLSPRMADSEIPRRQEHDISLDRIPRDHPYIQYNVLWEEGKAALEQLLKFMVHPAISSINLTTALGSLANIARQRPMFMSEVIQAYETLHANLPPTLAKSQVSSVRKNLKLHLLSVLKHPASLEFQAQITTLLVDLGTPQAEIARNMPSSKDTRKRPRDDSDSTLKKMKLEPNLGEDDEDKDLEPGPSGTSKASAQISGQSDTDITAEFLQPLLTPDNVANLVLISMVYLPEAMPASFQAIYTPVESAGTEAQIKHLARLMATQMTAAGLGPGVEQTKQCKEEPKEEKVVKTESVLIKRRLSAQGQAISVVGSLSSMSPLEEEAPQAKRRPEPIIPVTQPRLAGAGGRKKIFRLSDVLKPLTDAQVEAMKLGAVKRILRAEKAVACSGAAQVRIKILASLVTQFNSGLKAEVLSFILEDVRARLDLAFAWLYQEYNAYLAAGASGSLDKYEDCLIRLLSGLQEKPDQKDGIFTKVVLEAPLITESALEVVRKYCEDESRTYLGMSTLRDLIFKRPSRQFQYLHVLLDLSSHEKDKVRSQALLFIKRMYEKEQLREYVEKFALNYLQLLVHPNPPSVLFGADKDTEVAAPWTEETVKQCLYLYLALLPQNHKLIHELAAVYTEAIADIKRTVLRVIEQPIRGMGMNSPELLLLVENCPKGAETLVTRCLHSLTDKVPPSPELVKRVRDLYHKRLPDVRFLIPVLNGLEKKEVIQALPKLIKLNPIVVKEVFNRLLGTQHGEGNSALSPLNPGELLIALHNIDSVKCDMKSIIKATNLCFAERNVYTSEVLAVVMQQLMEQSPLPMLLMRTVIQSLTMYPRLGGFVMNILSRLIMKQVWKYPKVWEGFIKCCQRTKPQSFQVILQLPPQQLGAVFDKCPELREPLLAHVRSFTPHQQAHIPNSIMTILEASGKQEPEAKEAPAGPLEEDDLEPLTLAPAPAPRPPQDLIGLRLAQEKALKRQLEEEQKLKPGGVGAPSSSSPSPSPSARPGPPPSEEAMDFREEGPECETPGIFISMDDDSGLTEAALLDSSLEGPLPKETAAGGLTLKEERSPQTLAPVGEDAMKTPSPAAEDAREPEAKGNS
B2: RNA polymerase II subunit A C-terminal domain phosphatase SSU72 (Homo sapiens), Q9NP77-1 (parent)
chain: MPSSPLRVAVVCSSNQNRSMEAHNILSKRGFSVRSFGTGTHVKLPGPAPDKPNVYDFKTTYDQMYNDLLRKDKELYTQNGILHMLDRNKRIKPRPERFQNCKDLFDLILTCEERVYDQVVEDLNSREQETCQPVHVVNVDIQDNHEEATLGAFLICELCQCIQHTEDMENEIDELLQEFEEKSGRTFLHTVCFY
partner: B1 chain

Variants of: B1
Settings: with SSU72, Q9NP77-1

Row | Variant | effect of a mutation on the interaction
1 | K185A | disrupting interaction

Variants of: B2
Settings: with sympk_human SYMPK

Row | Variant | effect of a mutation on the interaction
2 | T190A;V191A;F193A | disrupting interaction

Source: IntAct's records for PubMed 20861839
